In patent US20120220530A1 (NOVOZYMES BIOPHARMA DK A S, published 2012):
Blank lines part the entries; values can stand above or below the binder they belong to.

Key:
mouse serum albumin = molecular target: T1, mouse serum albumin (mouse, UniProt P07724 25-608); experiment: SPR, FcRn immobilized, 1:1 Langmuir model
T1 construct: mature; also called MSA; MouseSA
Experimental: SPR analyses were performed on a BIAcore 3000 instrument (GE Healthcare) using CM5 chips and immobilization of smFcRn-GST and shFcRn-GST variants or smFcRn was performed using the amine coupling kit (GE Healthcare). Protein samples (10 μg/ml) were injected in 10 mM sodium acetate at pH 4.5 (GE Healthcare), all as described by the manufacturer. Unreacted moieties on the surface were blocked with 1 M ethanolamine. For all experiments, phosphate buffer (67 mM phosphate buffer, 0.15 M NaCl, 0.005% TWEEN® 20) at pH 6.0 or pH 7.4, or HBS-P buffer (0.01 M HEPES, 0.15 M NaCl, 0.005% surfactant P20) at pH 7.4 were used as running buffer or dilution buffer. Kinetic measurements were performed using a low density immobilized surface (100-200 resonance units (RU)). […] In all cases, to correct for nonspecific binding and bulk buffer effects, responses obtained from the control surfaces and blank injections were subtracted from each interaction curve. Kinetic rate values were calculated using predefined models (Langmuir 1:1 ligand model, heterogeneous ligand model and steady state affinity model) provided by the BIAevaluation 4.1 software.
The KD's were generated using the B|Aevaluation 4.1 software) A Langmuir 1:1 ligand model was used throughout. The kinetic values represent the average or triplicates. ND means: Not determined. NA means: Not acquired

[1] = molecular target: T2, glutathione-S-transferase (GST)-fused shFcRn (human, UniProt P55899 24-290; P61769 21-119, limits assumed); experiment: ELISA: albumin coated at the concentration on the axis, shFcRn-GST in solution, pH 6.0
T2 construct: Made as in Berntzen et al. 2005 / FEBS J. 2008; also called shFcRn-GST; GST-tagged shFcRn; not shown: GST tag
Experimental: One hundred μl of the substrate tetramethylbenzidine (TMB) (Calbiochem) was added to each well and incubated for 45 min before 100 μl of 0.25 M HCl was added. The absorbance was measured at 450 nm using a Sunrise TECAN spectrophotometer (TECAN, Maennedorf, Switzerland). The same ELISA was repeated with PBS/T pH 7.4.
Commercially available animal albumin (either Sigma-Aldrich or Calbiochem) were further purified as described in Andersen et al (2010). J. Biol. Chem. 285, (7), 4826-4836.

Kd (mouse serum albumin): 9.3 µM
koff (mouse serum albumin): 0.0394 s⁻¹
kon (mouse serum albumin): 4200 M⁻¹ s⁻¹
B1: soluble mouse FcRn (smFcRn) (receptor)
chain 1: SETRPPLMYHLTAVSNPSTGLPSFWATGWLGPQQYLTYNSLRQEADPCGAWMWENQVSWYWEKETTDLKSKEQLFLEALKTLEKILNGTYTLQGLLGCELASDNSSVPTAVFALNGEEFMKFNPRIGNWTGEWPETEIVANLWMKQPDAARKESEFLLNSCPERLLGHLERGRRNLEWKEPPSMRLKARPGNSGSSVLTCAAFSFYPPELKFRFLRNGLASGSGNCSTGPNGDGSFHAWSLLEVKRGDEHHYQCQVEHEGLAQPLTVDLDSSARSS
chain 2: IQKTPQIQVYSRHPPENGKPNILNCYVTQFHPPHIEIQMLKNGKKIPKVEMSDMSFSKDWSFYILAHTEFTPTETDTYACRVKHASMAEPKTVYWDRDM

EC50 (read off the curve) [1]: ~1 µg/mL
B2: donkey serum albumin (ligand, UniProt Q5XLE4 25-607, looked up)
chain: DTHKSEIAHRFNDLGEKHFKGLVLVAFSQYLQQCPFEDHVKLVNEVTEFAKKCAADESAENCDKSLHTLFGDKLCTVATLRATYGELADCCEKQEPERNECFLTHKDDHPNLPKLKPEPDAQCAAFQEDPDKFLGKYLYEVARRHPYFYGPELLFHAEEYKADFTECCPADDKAGCLIPKLDALKERILLSSAKERLKCSSFQKFGERAFKAWSVARLSQKFPKADFAEVSKIVTDLTKVHKECCHGDLLECADDRADLTKYICEHQDSISGKLKACCDKPLLQKSHCIAEVKEDDLPSDLPALAADFAEDKEICKHYKDAKDVFLGTFLYEYSRRHPDYSVSLLLRIAKTYEATLEKCCAEADPPACYATVFDQFTPLVEEPKSLVKKNCDLFEEVGEYDFQNALIVRYTKKAPQVSTPTLVEIGRTLGKVGSRCCKLPESERLPCSENHLALALNRLCVLHEKTPVSEKITKCCTDSLAERRPCFSALELDEGYIPKEFKAETFTFHADICTLPEDEKQIKKQSALAELVKHKPKATKEQLKTVLGNFSAFVAKCCGAEDKEACFAEEGPKLVASSQLALA
notes: mature
